This is an account of results in the DeepSol protein solubility set.

This series in a line: soluble on expression in E. coli; label from the status in PepcDB or PDB records.
As to “MQEKAVVLDDQMIRRALTRISHEIVERNKGVDNCVLVGIKTRGIFIAQRLAERIGQIEGKEMEVGELDITLYRDDLTLQSKNKEPLVKGSDIPVDITKKKVILVDDVLYTGRTVRAAMDALMDLGRPSQIQLAVLVDRGHRELPIRADYVGKNIPTSSEERIEVDLQETDQQDRVSIYDK”, the “soluble on expression in E. coli” value was “soluble”.

Take “MLIFKIFRRSEWDDFRRAGATAGAPVDLADGYIHFSTAAQVAETAAKHFTAESDLVLVAIDPDRAGPDLKWEPSRGEQLFPHLYRRLTLDDVVWDKSLPLGATGHIFPEGLWLEHHHHHH”: the “soluble on expression in E. coli” value is recorded as “soluble”.

“MVWDVETAKRFLEIIKDEPIYYPALIALHTGMRAGEILSLKWCDVNFETRVISIVKSERKNRGLKTVNLKTKTSKRAVYMNDILYKELKNLYEITKPKPDDFVCPRLPTGNLTVNYLSRKFKKLVKKHNFPLIRFHDLRHTFATLMLSLGVNTKIVAEILGHSDIKLTADTYSHVLPTMQEEAMKEFVKLWKLEHHHHHH”: the “soluble on expression in E. coli” value is recorded as “not soluble”.

As to “MYDAIVVGGGFSGLKAARDLTNAGKKVLLLEGGERLGGRAYSRESRNVPGLRVEIGGAYLHRKHHPRLAAELDRYGIPTAAASEFTSFRHRLGPTAVDQAFPIPGSEAVAVEAATYTLLRDAHRIDLEKGLENQDLEDLDIPLNEYVDKLDLPPVSRQFLLAWAWNMLGQPADQASALWMLQLVAAHHYSILGVVLSLDEVFSNGSADLVDAMSQEIPEIRLQTVVTGIDQSGDVVNVTVKDGHAFQAHSVIVATPMNTWRRIVFTPALPERRRSVIEEGHGGQGLKILIHVRGAEAGIECVGDGIFPTLYDYCEVSESERLLVAFTDSGSFDPTDIGAVKDAVLYYLPEVEVLGIDYHDWIADPLFEGPWVAPRVGQFSRVHKELGEPAGRIHFVGSDVSLEFPGYIEGALETAECAVNAILHSHHHHHH”, the “soluble on expression in E. coli” value was “soluble”.

For the sequence “METCFANLDEQTKEKAKSILEQKKSGKLTHEQAKEELTKLGVKLPEKEKHEDIFAGLDEATKTKAKAILDNEKKQLEALNVDLPHHKFFMKKEDK”, the “soluble on expression in E. coli” value is recorded as “not soluble”.

For “MSYPATRAEQVVDTLHGVQVADPYRWLEDEKAPEVQTWMTAQNAHAREALAKFPGREALAARFKELFYTDSVSTPSRRNGRFFYVRTHKDKEKAILYWRQGESGQEKVLLDPNGWSKDGTVSLGTWAVSWDGKKVAFAQKPNAADEAVLHVIDVDSGEWSKVDVIEGGKYATPKWTPDSKGFYYEWLPTDPSIKVDERPGYTTIRYHTLGTEPSKDTVVHERTGDPTTFLQSDLSRDGKYLFVYILRGWSENDVYWKRPGEKDFRLLVKGVGAKYEVHAWKDRFYVLTDEGAPRQRVFEVDPAKPARASWKEIVPEDSSASLLSVSIVGGHLSLEYLKDATSEVRVATLKGKPVRTVQLPGVGAASNLMGLEDLDDAYYVFTSFTTPRQIYKTSVSTGKSELWAKVDVPMNPEQYQVEQVFYASKDGTKVPMFVVHRKDLKRDGNAPTLLYGYGGFNVNMEANFRSSILPWLDAGGVYAVANLRGGGEYGKAWHDAGRLDKKQNVFDDFHAAAEYLVQQKYTQPKRLAIYGGSNGGLLVGAAMTQRPELYGAVVCAVPLLDMVRYHLFGSGRTWIPEYGTAEKPEDFKTLHAYSPYHHVRPDVRYPALLMMAADHDDRVDPMHARKFVAAVQNSPGNPATALLRIEANAGHGGADQVAKAIESSVDLYSFLFQVLDVQGAQGGVAAQGRHHHHHH”, the “soluble on expression in E. coli” value was “soluble”.

Consider “MGSDKIHHHHHHMTSPRIISIEGPMGAGKTSLARQLAQSLGGRMILEAPAQNPFLSRFYQGPGAALATELQFFMQRREQWRHRDDSSWLISDHSARKDEIFTPLTLDAEEHHLFNELRMALDFHPAPADLMIFLDAPLAVLMKRIRARGDAYEQALAPDYLARVQAAYRAWQANYALPRMNVDSAQVDFVHDPRHTERLIDAVRHRLKDAEEQDA”, for which the “soluble on expression in E. coli” value is reported as “not soluble”.

Turning to “QNTLAENQFNQRRTIETTLMGSIISAFRARGDAGAREILTEWKDSPVSSGVYVIQGDEKKDILNRYIDSYTIERARLFAAGHPHSNLVHIEYDRFGEEYLFFTKDWDKLQARRLPSPLLIPGLPLAPIWHE”, the “soluble on expression in E. coli” value is listed as “not soluble”.

On to “MAHHHHHHMTLENKALLCLIKKYEEKNKFLNVVEYIHYVCTNLYSYEENLNYNIMYDEFLKDLKKYLKENILDYKHILENILLKTDINYVNEQNIVNDILSKKKIYDISFEEVKNTTMKSEYSMENIKTSVKTENKDISLNKEECNKDDHVQEDNIDKYNGLEGKNREKNICRNWKDEKSQHEFYQLQSFEKNENREWFRVDPNLNWKEKQQLIYNEIEKLKNEIKKITVHSESTKIIISSMICQSKIFLYELEDNIKDYKILKEKIMNDKYLLKKGDYINEVYNGIIQNQRIKIDNVKKTNKTLLNLYNKKFSNINYIISLNENINNVDFLYLNVLIHNRKETPQPYEQLQNKIPEYTNKEKEIFSNIEKNNDSLNLLDNLIVDITNKIDTNMDITNK”, for which the “soluble on expression in E. coli” value is “not soluble”.

“MGSDKIHHHHHHMKPSIYSLTRNDLIAWTIEHGEKKFRATQIWDWLYRKRVQSFEEMTNLSKDFIALLNENFLVNPLKQRIVQESADGTVKYLFELPDGMLIETVLMRQHYGLSVCVTTQVGCNIGCTFCASGLIKKQRDLNNGEITAQIMLVQKYFDERGQGERISHVVVMGIGEPFDNYDNVLKFLRTINDDNGLAIGARHITVSTSGLAHKIRDFANEGVQVNLAVSLHAPNNELRSSIMRINRSFPLEKLFAAIEYYIETTNRRVTFEYIMLNGVNDSPENAQELADLTKKIRKLSYVNLIPYNPVTEHDQYSRSPKERVDAFYDVLKKNGVNCVVRQEHGTDIDAACGQLRSNTMKRDREKATAGTAQ”: the “soluble on expression in E. coli” value is reported as “not soluble”.

In the case of “MKLIVKVFPEITIKSPPVRKKFIRQLGKNIRTVLRELDADIVVGGVWDNLEVETRLTDPKVLQGIRDRLSCMPGIANFLQVAEYPLGDMDDVVAKCKLHYADLLPGTMFSVRCKRAGRHDFSSMDVEKYVGSQLRMQCGAAGIELKKPDLVVRMEIRDQRLFVVHDQHKGMGGYPLGALEQTLVLMSGGFDSTVAAYQIMRRGLMAHFCFFNLGGRAHELGVMEVAHFIWKKYGSSQRVLFVSVPFEEVLGEILQKVDNSHMGVVLKRMMLRAASAVADRLEIDVLVTGEAISQVASQTLPNLSLIDAATDKLVLRPLVATHKQDIVDLATEIGTADFARHMPEYCGVISVNPKTNAKRNRVEYEEQQFDMAILEQALERAKLVSIDRVIDDLSRNIDIEEVSQALAGQVIIDIRHPDAQEDQPLQVPGVEIQTLPFYALNSRFKALDDTRQYLLYCDKGVMSRLHAHHLLSEGHANVRVYRPS”, the “soluble on expression in E. coli” value is on record as “not soluble”.

Consider “MDALFNHKEFIRLSHEGNINYEKLKVPKNTELVNTADQRNSHVYLIIDGFVSISMNPESNSIYTILGKGSFVNYYSLFQGNVDDFLFKTISTCTVYKYTFKDLEYFLSMFPENFGFQFFIMRDLARHAFFKSLSSETSSSDKLELSFINIGKLHGTPYEKDSVILPKEMRTSVIAAYSNLSKSSFYKQLARLKDQGKIWKNDREWVLKNKEVYDYLKAREIDV”, for which the “soluble on expression in E. coli” value is listed as “not soluble”.

Turning to “MSLRILVIEDEISLNKTIIDNLNEFGYQTDSSENFKDGEYFIGIRHYDLVLANWTLPDGDGAELVNTIKHKSPRTSVMIMSSKTDKETEIKALKAGADDFVKKPLDFDILLARIEARLRLGGTNVIKIEDLVIDPDEEKITYKGQDIELKGKPFEVLTHLARHSDQIVSKEQLLDAIWEEPELVTPNVIEVAINQIRQKMDKPLNISTIETVRRRGYRFCFPKKSEGHHHHHH”, the “soluble on expression in E. coli” value is “soluble”.

Turning to “MTNQNLQDFLDGVLLKEENLNKITEVSLEKGLPHLLDEGIHNEDNFQIFTSQKIVADMIKMVGVKEMKNVHTTVLEPTSGDGAFTCAILDLRLKNIKKSDSFLKEALTGLSTIYSVEIDEELVWLQRNNLYSIFLAFLKKHGIFNEELSLLVKKILMINVSWGELITETKDNENFVCNYDYFLRNKKTKKKPAKHKHEFPEGLFSNGEGKCKSLFVNWSFADVINEIAHNSNFYFAKIAKIPGEIIQFQIN”, the “soluble on expression in E. coli” value is on record as “not soluble”.

“MSLKKNVYFLLALLLIGLSACDNAPKFKVQGEINGAEDKMLYLEASGLDGIVALDSAKLGSSGSFSFAQKRPESPEFYRLRLDNKVINFAVDSTETVSVKAEINDFATAYRIEGSENNLKIKELVLLQADLQKNVDKLGQNRNIPAGIAQDSLLAMVNNYKNKVKREYIFAAPNMPYAYFALFQSLNGYMIFDPLTNKEDVKCFAAVATSLNNAYPHADRSRNLYNMVIKGMKNTRTPRQQTMEIPEDKIKEASIIDIQLKDLKGNTRSLTDLKGKVVLIDFTVYNNAMSAAHNLALRELYNKYASQGFEIYQISLDGDEHFWKTSADNLPWVCVRDANGAYSSYISLYNVTNLPSVFLVNRNNELSARGENIKDLDEAIKKLLEGHHHHHH”: the “soluble on expression in E. coli” value is on record as “not soluble”.

Regarding “NTRGMALFADGGIVGTKPYAASGSYIKKMSDYCKGCHYDNKARSGEGSCPFNSLYWRFMDKHEKRLATNPRIGMIFRSWDNMEASQRQAILDT”, the “soluble on expression in E. coli” value is on record as “not soluble”.

Consider “HFESIQAVNKTLNKKGLPPIIVHFIEETLQDYELIGMLNNGYIKAIVLDSHKAKLWLNAMDDIKAHKKVPLRKNGNIAWVMRQNSPQLKAVVNKFIQKSRSGTLLGNVIYSKYIDNTNWLNKALNPKKIAQLEKLSA”, for which the “soluble on expression in E. coli” value is given as “not soluble”.

For “MNNLLRCHQVCKTYQEGELQTQVLKGVSFELKRGELVSIIGSSGSGKSTLLHILGALDDASEGQVEFLGQSLHQLSSNKQAKIRNQHLGFVYQFHHLLADFSALENVAMPLLIGGMNVAKAKAKAQSLLERVGLGHRVAHRPSELSGGERQRVAIARALVNKPDLVLADEPTGNLDHKTALSIYDLMRELNRESGTAFLVVTHDGELAAKMDRHMHMKDGLLTDITGA”, the “soluble on expression in E. coli” value is recorded as “not soluble”.

As for “SNAMKIVIAPDSYKESLSALEVATAIEQGFREIWPDADYLKLPLADGGEGTVEAMVEATAGRIVHVEVTGPLGHRVNAFYGLSGDARSAFIEMAAASGLEQVPPAQRDPLKTTSWGTGELIRHALDAGVEHIIIGIGGSATNDGGAGMVQALGARLRDAQGNDIAQGGIGLETLASIDISGLDKRLSACHIEVACDVTNPLTGKEGASAVFGPQKGATPEMIERLDTALTRYAHLIARDLHVDVLDLAGGGAAGGMGAALYAFCGAQLRRGIEIVTDALHLEACLADADLVITGEGRIDSQTIHGKVPIGVANIAKRYNKPVIGIAGSLTADVSVVHEHGLDAVFSVIYTICTLEDALKNASENVRMTARNVAATLKAGQQLR”, the “soluble on expression in E. coli” value was “soluble”.

In the case of “MGSDKIHHHHHHMNSLQSTHPPKLNSCDRQVILDYFENAWQLEDMLMKTLVEEDTFYLNPDPLRNPLIFYLGHSAVFYINKLISVGLLEKRINPDYEILFEIGVDPEVPEELNQAIAHLEWPQVAQTWEYRKQAYTVIAEVIKTTPITLPIHPTHPLWALMMGIEHQRIHIETSSMLIRQLPIERVKRPQNWQYAPFNGYTAQNEMIQVIGGVVKLGKAFNDPTYGWDIDYGDRTVEVEPFLASKYLITNADFSYFVKAGGYENQAYWDEESWHWKTENNIQYPKFWIHQNGIYKYRAMFDEIDLPLDWPVEVNHYEAMAYCCWQGKDTRLMSEAEYHLATYGSGLVEDVDNYNVNLKFGSPSPVGMLETAKSYSGLYDLRGNVWEHLSDNLNPLPGYKPHFLYEDNSAIFFDNKHQMMLGGCWITNGTEALKYYRNWFRPNFYQHAGFRIVQDMKH”, the “soluble on expression in E. coli” value is given as “not soluble”.

As for “MGSDKIHHHHHHAQFKKFNLGKAIQAGKDAAQAISLSDADIAAMSKEYMEWMDKHNPLTKPDSEYGKRLERLTGNIKEVDGMKVNFGVYEVVDVNAFACGDGSVRICAGLMDVMTDEEVMAVIGHEIGHVIHTDSKDAMKNAYFRSAVKNAAGAASSQVAKLTDSELGAMAEALAGAQYSQKQEYEADAYGVEFCVKNNIDPYGMYKSLNKLLELSNGAPASSYMQRMFSSHPDTAKRVARAKELADKYKQ”, the “soluble on expression in E. coli” value is given as “not soluble”.
